# ± gives the uncertainty stated by the source.
# Experiment: protein stability index of a GFP-peptide fusion (yeast GPS) (PSI 1-4); higher = more stable; sorted into four equal gates, so the index is relative within each strain
# In short: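 Each library plasmid carries Cherry plus GFP with a tiled 17-residue yeast protein peptide fused downstream, and the pooled library was carried in yeast. Mid-log cultures in leucine-free medium were sorted into four equal gates by GFP/Cherry ratio. Reads from Illumina sequencing of PCR-amplified plasmids from each gate were assigned to strains by barcodes. Per peptide, the protein stability index was computed as the summed products of gate read frequency and gate number.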
Sequence,protein stability index (doa10∆),protein stability index (pdr5∆),protein stability index (san1∆),protein stability index (ubr1∆)
AQGLLHLGKGTMTMDVF [RPN1],2.47 ± 0.065,2.61 ± 0.066,2.15 ± 0.081,1.89 ± 0.058
PKLLDALNKISKYYPGV [SNU114],3.08 ± 0.076,2.37 ± 0.072,2.8 ± 0.065,2.88 ± 0.044
EQIDENWSKEDLQKLLK [SWI3],3.16 ± 0.067,3.08 ± 0.085,3.02 ± 0.073,3.26 ± 0.058
AARKAEKAKSAGVQGSK [RPL24B],3.27 ± 0.087,3.11 ± 0.068,3.18 ± 0.065,3.29 ± 0.042
RTMLELITQLDGFDPRG [RPT1],2.6 ± 0.061,2.81 ± 0.061,2.91 ± 0.066,2.73 ± 0.096
YQTRARQKARTDAHTPL [RPR2],3.29 ± 0.1,3.14 ± 0.09,3.32 ± 0.058,3.27 ± 0.078
RLLNTNVDGNIKIVYAL [RPS18A],–,–,–,3.27 ± 0.16
QEQYQTNTFEGSGNNNE [SNU114],–,3.59 ± 0.23,3.3 ± 0.13,–
TVKTNDELMVIYISNLV [RPN8],1.66 ± 0.12,1.5 ± 0.063,1.51 ± 0.15,1.29 ± 0.078
GRGGSGWKPYYKLFIWL [YML031W/NDC1],1.5 ± 0.055,1.78 ± 0.052,1.41 ± 0.089,1.31 ± 0.049
LVVIRFGRKNDRQCMIM [DIB1],2.4 ± 0.061,2.55 ± 0.055,2.33 ± 0.073,2.79 ± 0.038
NVSSNIVKNAEQHNLVK [RPS20],2.81 ± 0.066,3.17 ± 0.057,3.26 ± 0.046,3.07 ± 0.061
EEDDEGELEQAQAWINL [RPN7],3.58 ± 0.28,3.23 ± 0.11,3.43 ± 0.11,3.26 ± 0.058
KNWQNVGSLVVKSSMGP [RPL1A],2.1 ± 0.046,2.39 ± 0.051,2.7 ± 0.064,2.29 ± 0.045
YIDYSSKRYIPSVNDFV [RRP40],2.51 ± 0.048,2.83 ± 0.051,2.42 ± 0.1,2.6 ± 0.078
VANSPNKRLDVIDGKLP [YDL088C/ASM4],3.03 ± 0.068,2.8 ± 0.067,2.42 ± 0.094,2.11 ± 0.058
LKIYKVGDIVDIKANGS [RPL21B],2.18 ± 0.058,1.88 ± 0.05,1.83 ± 0.062,2.08 ± 0.03
ALDTVTNVLNFIKLQKI [FAS1],2.76 ± 0.069,2.04 ± 0.067,2.14 ± 0.13,2.15 ± 0.055
KDAEYLRNYLTPNVREE [PUP1],3.09 ± 0.057,3.01 ± 0.075,3.14 ± 0.056,3.16 ± 0.081
SRMRLIRQDVNLGRAVF [PRP8],2.06 ± 0.085,2.31 ± 0.061,2.04 ± 0.084,2.35 ± 0.054
LPAYSGEIGDFFSSDWR [POP1],3.04 ± 0.11,3.32 ± 0.089,3.24 ± 0.068,3.16 ± 0.096
IPHFIDNNSSLNVSNTK [PRP8],2.36 ± 0.08,2.42 ± 0.069,2.66 ± 0.053,2.51 ± 0.06
LFSPEEVRAISVAKIRF [RPO21],2.17 ± 0.1,2.31 ± 0.088,2.41 ± 0.096,2.39 ± 0.07

Sequence,protein stability index (doa10∆),protein stability index (pdr5∆),protein stability index (san1∆),protein stability index (ubr1∆)
GKQIKSTIYNWGDNKLA [YML103C/NUP188],2.71 ± 0.17,3.18 ± 0.15,2.82 ± 0.11,2.87 ± 0.1
TLVKGPKEPRLKSQMDT [SKI6],3.09 ± 0.25,3.05 ± 0.13,–,3.33 ± 0.091
TMFTAEQSELLKAQITS [SNF2],2.19 ± 0.046,2.5 ± 0.056,2.57 ± 0.058,2.49 ± 0.036
KQLQLAMHNSKAASSTR [POP1],1.96 ± 0.057,2.17 ± 0.071,1.54 ± 0.11,1.74 ± 0.037
HTDVSSSLEARYFFYLS [RPN3],2.68 ± 0.083,3.23 ± 0.1,2.72 ± 0.11,2.85 ± 0.076
GVDAMSVDDLKKLNKNK [RPL1A],3.33 ± 0.078,3.14 ± 0.12,3.25 ± 0.058,3.73 ± 0.11
MKLDDSSKTRNVLNRIQ [ITC1],1.78 ± 0.082,1.3 ± 0.051,2.71 ± 0.12,1.38 ± 0.056
PKNSSSPVQIAFNRFMA [SSN8],1.51 ± 0.053,1.74 ± 0.05,1.52 ± 0.1,1.57 ± 0.054
QTARKSTGGKAPRKQLA [HHT1],3.18 ± 0.11,3.29 ± 0.098,3.05 ± 0.072,3.37 ± 0.086
VKNKYNVGKQLSNEIIY [PRP28],2.35 ± 0.062,2.6 ± 0.069,2.36 ± 0.071,2.57 ± 0.052
YSPTSPSYSPTSPSYSP [RPO21],2.756 ± 0.027,2.976 ± 0.026,2.87 ± 0.024,2.868 ± 0.02
VPQTEEARAEAINLMGV [RPO31],3.15 ± 0.11,2.97 ± 0.1,3 ± 0.085,3.12 ± 0.052
GSTSLIEGMEQRIIKEL [ARP7],3.19 ± 0.12,3.23 ± 0.12,2.98 ± 0.24,2.71 ± 0.21
YFLVLSPYGNLQNDLIH [RPN5],1.92 ± 0.091,2.42 ± 0.1,2.64 ± 0.089,2.67 ± 0.14
ITRSVMRFNIEIIADWI [BRR2],3.04 ± 0.071,2.7 ± 0.078,2.57 ± 0.097,3.16 ± 0.065
DQKTGRAKSSSHLFNEY [RPN4],2.85 ± 0.25,3.22 ± 0.24,3.39 ± 0.12,3.46 ± 0.15
LELTTGATYRGKLVESE [SMD3],3.29 ± 0.079,3.26 ± 0.084,2.94 ± 0.11,3.38 ± 0.057
SAKNRVVILARAKALGI [RPL32],1.69 ± 0.05,1.74 ± 0.061,1.76 ± 0.081,2.05 ± 0.042
CSGSGMGGVSALRGMFK [FAS2],3.64 ± 0.097,3.68 ± 0.08,3.37 ± 0.096,3.43 ± 0.067
DTNNEADLMALENATWT [SNF12],2.58 ± 0.074,3.18 ± 0.11,2.64 ± 0.087,2.94 ± 0.09
PPEEFSNTIDELSTDII [SRB7],3.1 ± 0.057,3.16 ± 0.068,3.26 ± 0.069,3.05 ± 0.06
KRDAKAAGSYYVEAQHK [RPL7A],3.21 ± 0.086,3.19 ± 0.046,3.22 ± 0.042,2.91 ± 0.054

# — the supplement of paper PMC9732359
